According to patent US20230203482A1, “Methods of Rescuing Stop Codons via Genetic Reassignment with ACE-tRNA” (THE WISTAR INSTITUTE OF ANATOMY AND BIOLOGY, priority 2017, published 2023):

What was measured:
Type in all cases: cell-based, human
[1] = test system: native stop codons (TAA, TAG, TGA) of HEK293 transcripts; assay: Ribosome footprint profiling of transcriptome-wide 3′UTRs
Description: The question was raised whether ACE-tRNAs that show efficacious suppression of premature stop codons may also induce global readthrough of native stop codons. To address this potential “off target” suppression, a transcriptome-wide quantitative profile of actively engaged ribosomes on all cellular transcripts was obtained by generating libraries of ribosome footprints from HEK293 cells expressing exogenous ACE-tRNAs or a control mock plasmid (puc57GG). Streptomycin was removed from the growth media to prevent readthrough artifacts. For comparison, the ribosome footprint library was also generated from cells in the presence or absence of G418 (150 μM, 48 hours). […] Only transcripts with a minimum threshold of 5 RPKM in the coding sequence and 0.5 RPKM in the 3′UTR in two replicate libraries were included for the quantitation comparison (254 transcripts in G418 and 495-748 transcripts in ACE-tRNAs). […] ACE-tRNAs examined here had no detectable change of 3′UTR ribosome density with the exception of ACE-tRNA Gln-UAA and Arg-UGA which induced approximately a 2-fold increase in 3′UTR ribosome density for the cognate stop codon complimentary to the ACE-tRNA anticodon. Understanding the biological significance of 2-fold readthrough of protein stops will require further study, but this effect is substantially lower compared to the 100- to 1000-fold suppression of PTC for the same ACE-tRNA.
Multiple in-frame stop codons are frequently found at the end of genes^37-39 and may cause a minor difference in overall 3′UTR ribosome density for ACE-tRNA and G418 treatment. Ribosome occupancy was examined at each nucleotide in the 3′UTR within a 60 nt region downstream of the stop codons. […] Reads were normalized per total million-mapped reads, compared against control cells, and reported as a log 2-fold change as in panel A. More than 5,200 transcripts were mapped to at least 1 footprint in the region of interest. […] Taken together, the ribosome profiling data argue that efficiency of native stop codon suppression by ACE-tRNAs is generally low, and markedly less than the level of PTC suppression.
Ribosome Footprint Profiling Library preparation. HEK293 cells transiently transfected with ACE-tRNAs and control plasmid (puc57GG) were grown in standard grown media in the absence of Pen-Strep for 48 h. Libraries were prepared as described^55, with a few modifications. Briefly, cells were rapidly cooled by addition of ice-cold PBS, lysed in lysis buffer (20 mM Tris-HCl/pH7.4, 150 mM NaCl, 5 mM MgCl2, 1 mM DTT, 1% (v/v) Triton X-100, and 25 U ml^−1 Turbo DNase I) for 10 min on ice, and triturated with ten times through a 26-G needle. After clearance by centrifugation at 16,000 g for 10 min at 4° C., the lysates were digested with 100 U RNase I (Ambion, USA) per A260 lysate at room temperature for 45 min with gentle agitation prior to adding 200 U RiboLock RNase Inhibitor (Thermo Scientific). Ribosome protected mRNA fragments were then isolated by loading lysates onto a 1M sucrose cushion prepared in modified polysome buffer (20 mM Tris-HCl/pH7.4, 150 mM NaCl, 8.5 mM MgCl2, 0.5 mM DTT, 20 U ml^−1 RiboLock RNase Inhibitor) and centrifugated at 70,000 rpm at 4° C. for 2 h using a Beckmen TLA-110 rotor. Ribosome pellets containing mRNA footprints were extracted using TRIzol and separated on a denaturing 12% polyacrylamide gel containing 8M urea. RNA fragments with sizes ranging from 26 to 34 nt were manually excised from the gel stained with SYBR Gold (Invitrogen) and isolated to generate the ribosome-protected fragment library. Contaminating rRNA fragments depleted using a Ribo-Zero kit (Illumina). 3′ Oligonucleotide adaptor ligation, reverse transcription, circularization, and secondary rRNA depletion using biotinylated rRNA depletion oligos (Table 9) were performed as described^55. Libraries were barcoded using indexing primers for each sample during PCR amplification. […]

NLuc-UAG PTC = assay: NanoLuc nonsense reporter screen (all-in-one HTC plasmid), TAG/UAG PTC, HEK293 cells
Description: (§1) In order to enable the identification of the nucleotide composition and functional ability to suppress nonsense codons by new types of tRNA, an All-In-One Plasmid With A One Pot Cloning Reaction was invented for High Throughput Cloning FIG. 11. This approach enables the facile investigation of ACE-tRNA activity via luciferase activity in a standard 96 well format. Briefly, synthetic nucleotide sequences encoding for tRNA are ligated into the NanoLuc Reporter plasmid, with an example of the TGA nonsense reporter plasmid variant shown in FIG. 11. […] and TAG (amber) stop codon rescue vectors have been successfully designed and implemented in FIGS. 16-19. The benefits are the approach is that DNA oligos encoding for tRNA libraries can be ligated in the NanoLuc reporter plasmid with the presence of the restriction enzyme and ligase with the reaction pushed to nearly 100% incorporation of tRNA insert (FIG. 11)-thus the ‘one-pot’ designation. The reaction is transformed into E. coli, with the resultant cDNA purified by standard methods. Another benefit of the invented method is that the tRNA and reporter gen are within the single expression cassette, therefore lowering biological variability and improving data quality obtaining in resulting screens of tRNA suppression activity. The purified cDNA plasmids are then screened in high-throughput 96 well format for their ability to repair nonsense codons by inferred luciferase activity. The approach is suitable for the high-throughput screening of hundreds to thousands of tRNA for novel therapeutic activity.
(§2) The rationale of this study is rooted in the observation that there are multiple tRNA genes with unique sequences (isodecoders) for a given cognate amino acid (isoacceptors), leading to >400 tRNAs annotated in the human genome (http:lowelab.ucsc.edu/GtRNAdb/)^28, 29. First, tRNA genes were examined to identify individual ACE-tRNAs that retain suppression efficacy of PTCs in mammalian cells. In order to maximize sequence coverage, an all-in-one cDNA plasmid was generated that supports both high-throughput cloning (HTC) of ACE-tRNAs and quantitative measurement of PTC suppression using luminescence following delivery to mammalian cells, FIG. 21B. ACE-tRNA sequences were cloned as DNA oligos into the HTC plasmid using Golden Gate cloning^30 paired with ccdB negative selection^31. This strategy produced ˜100% cloning efficiency. ACE-tRNA suppression efficiency was read out from a split NanoLuc luciferase (NLuc) NanoBiT platform whereby the PTC of interest (UGA, UAA, or UAG) was introduced in-frame at the junction between the large bit and small bit domains, FIG. 21B^32, using a 96-well format and normalized to background obtained in NLuc-PTC expressing cells. Twenty-one glycine ACE-tRNAs were first evaluated for suppression of the UGA PTC, FIG. 22, top left, column 1 (violet). […] Given the high sequence conservation among the Gly-tRNAs screened for anti-codon tolerance (FIG. 27), it would be difficult to predict de novo which tRNA would be most amenable to anticodon-editing.
(§3) The parent plasmid used was pcDNA3.1(+). The cDNA encoding pNLuc was Gibson Assembled (New England Biolabs, USA) into restriction sites HindIII and XhoI. A glycine (codon gga), tryptophan ([…]), amber (tag), opal (tga) and ochre (taa), were added to amino acid position 160 during cDNA per. The pcDNA3.1(+) polyA sequence was replaced for one with no BbsI restriction sites using per based Gibson Assembly. The high throughput ACE-tRNA Golden Gate cloning site was generated by first inserting the 5′ leader sequence of the human tRNA^Tyr gene (bold) with a T7 promoter sequence upstream (italics)
(§4) tRNA gene sequences were obtained from the tRNA database tRNAscan-SE (http://gtrnadb.ucsc.edu/index.html; PMID: 26673694). […]

NLuc-UAA PTC = assay: NanoLuc nonsense reporter screen (all-in-one HTC plasmid), TAA/UAA PTC, HEK293 cells; details: Table 3, Gln TAA
Description: as §1, §2, §3, §4

Molecule | Ranking (NLuc-UAG PTC; Table 5, Glu TAG) | Ranking (NLuc-UAA PTC) | also measured
CN[C@@H]1[C@@H](O)[C@@H](O[C@@H]2[C@@H](O)[C@H](O[C@H]3O[C@H]([C@@H](C)O)[C@@H](O)[C@H](O)[C@H]3N)[C@@H](N)C[C@H]2N)OC[C@]1(C)O [G418, reference compound] |  |  | ribosome occupancy at each nucleotide in the 3′UTR downstream of stop codons ([1]; HEK293, log 2-fold change versus control): no observable change of ribosome occupancy; change of 3′UTR ribosome density versus control ([1]; HEK293, G418 150 μM, 48 hours, cognate stop codon group): no observable effect
GluTAGchr1.trna123: ACE-tRNA Glu, TAG suppressor, SEQ ID NO: 40 (nucleic acid, expressed or natural sequence) CGTCTCCCTGGTGGTCTAGTGGCTAGGATTCGGCGCTCTAACCGCCGCGGCCCGGGTTCGATTCCCGGTCAGGGAA | #3 |  | 
GluTAGchr1.trna106: ACE-tRNA Glu, TAG suppressor, SEQ ID NO: 41 (nucleic acid, expressed or natural sequence) CGTCTCCCTGGTGGTCTAGTGGTTAGGATTCGGCGCTCTAACCGCCGCGGCCCGGGTTCGATTCCCGGTCAGGGAA | #4 |  | 
TrpTAGchr17.trna10: ACE-tRNA Trp, TAG suppressor, SEQ ID NO: 33 (nucleic acid, expressed or natural sequence) CGTCGACCTCGTGGCGCAATGGTAGCGCGTCTGACTCTAGATCAGAAGGTTGCGTGTTCAAGTCACGTCGGGGTCA |  |  | Ranking (NLuc-UAG PTC; Table 4, Trp TAG): #1
GlnTAAchr1.trna17: ACE-tRNA Gln, TAA suppressor, SEQ ID NO: 26 (nucleic acid, expressed or natural sequence) CGTCGGTTCCATGGTGTAATGGTGAGCACTCTGGACTTTAAATCCAGCGATCCGAGTTCGAGTCTCGGTGGAACCT |  | #3 | 
GlnTAAchr6.trna1: ACE-tRNA Gln, TAA suppressor, SEQ ID NO: 27 (nucleic acid, expressed or natural sequence) CGTCGGTTCCATGGTGTAATGGTTAGCACTCTGGACTTTAAATCCAGCGATCCGAGTTCAAATCTCGGTGGAACCT |  | #4 | 
GlnTAAchr17.trna14: ACE-tRNA Gln, TAA suppressor, SEQ ID NO: 28 (nucleic acid, expressed or natural sequence) CGTCGGTCCCATGGTGTAATGGTTAGCACTCTGGACTTTAAATCCAGCGATCCGAGTTCAAATCTCGGTGGGACCT |  | #5 | 
GlnTAAchr6.trna175: ACE-tRNA Gln, TAA suppressor, SEQ ID NO: 25 (nucleic acid, expressed or natural sequence) CGTCGGCCCCATGGTGTAATGGTTAGCACTCTGGACTTTAAATCCAGCGATCCGAGTTCAAATCTCGGTGGGACCT |  | #2 | 
GlnTAAchr6.trna63: ACE-tRNA Gln, TAA suppressor, SEQ ID NO: 29 (nucleic acid, expressed or natural sequence) CGTCGGTCCCATGGTGTAATGGTTAGCACTCTGGACTTTAAATCCAGCAATCCGAGTTCGAATCTCGGTGGGACCT |  | #5.2 | 
GlnTAAchr1.trna101: ACE-tRNA Gln, TAA suppressor, SEQ ID NO: 24 (nucleic acid, expressed or natural sequence) CGTCGGTTCCATGGTGTAATGGTAAGCACTCTGGACTTTAAATCCAGCGATCCGAGTTCGAGTCTCGGTGGAACCT |  | #1 | 
GluTAGchr13.trna2: ACE-tRNA Glu, TAG suppressor, SEQ ID NO: 38 (nucleic acid, expressed or natural sequence) CGTCTCCCACATGGTCTAGCGGTTAGGATTCCTGGTTCTAACCCAGGCGGCCCGGGTTCGACTCCCGGTGTGGGAA | #1 |  | 
GluTAGchr2.trna18: ACE-tRNA Glu, TAG suppressor, SEQ ID NO: 39 (nucleic acid, expressed or natural sequence) CGTCTCCCATATGGTCTAGCGGTTAGGATTCCTGGTTCTAACCCAGGTGGCCCGGGTTCGACTCCCGGTATGGGAA | #2 |  | 
